According to article PMC2120799:

Biological target: cdk2 (NIH-3T3 cells) (mouse (endogenous in NIH-3T3)) (UniProt P97377)
Experiment: co-IP

Row | stoichiometry N (mol per mol cdk2) | Substance
1 | < 1 | p27 (NIH-3T3 cells) (from UniProt P46414 1-197) (natural protein)
2 | < 1 | p21 (NIH-3T3 cells) (from UniProt P39689 1-159) (natural protein)
